Measurements: PMC3945083

How the values were obtained:
Flag-PARP-1 = Flag-PARP-1 (UniProt P09874 1-1014); test: EMSA
PARP-1 (purified) = PARP-1 (purified) (UniProt P09874 1-1014); test: pull-down
Sequence of PARP-1 (purified) (P09874 whole entry): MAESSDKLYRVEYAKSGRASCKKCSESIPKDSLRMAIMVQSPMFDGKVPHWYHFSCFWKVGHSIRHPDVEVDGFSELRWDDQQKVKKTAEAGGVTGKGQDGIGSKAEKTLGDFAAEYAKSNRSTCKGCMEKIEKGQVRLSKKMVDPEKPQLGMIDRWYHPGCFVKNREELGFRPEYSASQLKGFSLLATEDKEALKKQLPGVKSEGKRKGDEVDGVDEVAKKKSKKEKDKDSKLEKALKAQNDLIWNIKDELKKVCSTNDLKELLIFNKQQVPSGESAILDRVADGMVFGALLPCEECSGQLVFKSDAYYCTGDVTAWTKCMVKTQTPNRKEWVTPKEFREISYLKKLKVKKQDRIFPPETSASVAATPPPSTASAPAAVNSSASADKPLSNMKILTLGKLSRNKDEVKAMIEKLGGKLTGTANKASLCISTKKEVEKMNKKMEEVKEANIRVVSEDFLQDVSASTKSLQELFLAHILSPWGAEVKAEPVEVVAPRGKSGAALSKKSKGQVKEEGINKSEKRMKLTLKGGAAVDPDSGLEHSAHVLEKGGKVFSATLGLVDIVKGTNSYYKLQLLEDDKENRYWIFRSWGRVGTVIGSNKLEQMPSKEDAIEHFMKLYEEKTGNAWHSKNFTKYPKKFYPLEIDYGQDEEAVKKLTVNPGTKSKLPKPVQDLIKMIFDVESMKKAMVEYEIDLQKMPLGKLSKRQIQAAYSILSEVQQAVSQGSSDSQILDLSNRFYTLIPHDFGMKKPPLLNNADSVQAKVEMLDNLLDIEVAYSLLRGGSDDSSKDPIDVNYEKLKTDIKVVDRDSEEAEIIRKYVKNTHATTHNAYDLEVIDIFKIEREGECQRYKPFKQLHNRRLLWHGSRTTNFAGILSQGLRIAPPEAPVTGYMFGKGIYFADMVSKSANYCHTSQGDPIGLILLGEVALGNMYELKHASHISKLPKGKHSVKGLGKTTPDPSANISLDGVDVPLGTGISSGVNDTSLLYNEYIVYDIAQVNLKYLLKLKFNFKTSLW

Sequence of Flag-PARP-1 (P09874 whole entry): as above

B1: WT NQO1-ARE (dsDNA)
DNA 1: AAATCGCAGTCACAGTGACTCAGCAGAATCTGAGCCTAGGG
DNA 2: CCCTAGGCTCAGATTCTGCTGAGTCACTGTGACTGCGATTT
binding result (Flag-PARP-1): binds | binding result (PARP-1 (purified)): binds
